We go through 1 molecule from publication PMC3257533.

This test concerns the target paclitaxel-stabilized microtubules. Put plainly: co-sedimentation.

By Kd is commonly meant the equilibrium constant for the complex coming apart. A high value points to a looser complex.

B1: MBP-Nsk1 (recombinant maltose-binding protein-Nsk1, wild type) (natural protein)
chain: MAYKLSLSAVEPLLIFPAAPFSTKKEKSTFQNNLISSDVFSSALKPLSPLKSLVADFSTHSNPSKDNQLISPPKINHREFLNEEKESDTQTRYLKQLINICNSPSKNHETSLSPSKSTIDNNERKLDNEIDNYKHDVKYSPYKGQGKTSNPSQGTTKCPGIFEEDNFFSVSPKRRKNLFEKYGKTDLGKPARVPSPKKSLSSTIKSPPSRVKLPTSILSKSPPLKVPNKNRSSTFSPLRTPTSSSKTFVIVDHSTPSPPSIRTKLEAFAPNSTFATQKRLRRLATLESSPALRSTLKSLQSKSSPVKLLKLKEEKAKIKNQLFKSEEEKDPVGKQKLPLESSLSPLDHSSAEKEMQKAPAKNKRRRTGSLETGLYPKESPTPSKKRSKRVLWSLKHIVSPGNREKHSLNSTPESIMKKDTKWPQNLAKNNINSEPNTPTKSNIDTGKAHSARAHKTRKNIQS
Molecule B1 gave a dissociation constant (Kd) of 230 nM. In other words, the sub-micromolar range.
